According to the supplement of paper PMC10567573:

B1: POLD4 (parent)
chain: ITDSYPVVKRREGPAGHSKGELAP
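Also: lentivirally expressed fusions sorted by FACS into six bins by GFP to DsRed ratio, PSI derived from sequencing read proportions per bin multiplied by bin number.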

Variants of: B1
Test: protein stability index of a GFP-peptide fusion (GPS, HEK-293T) (PSI 1-6); higher = more stable
Conditions: c terminus: a fixed tail appended
ITDSYPHVKRREGPAGHSKGELAP showed a protein stability index of 4.4.
In the case of ITDSYPQVKRREGPAGHSKGELAP, the protein stability index is reported as 3.79.
Work on ITDSYPWVKRREGPAGHSKGELAP yielded a protein stability index of 4.17.
In the case of ITDSYPLVKRREGPAGHSKGELAP, the protein stability index is reported as 3.44.
ITDSYPCVKRREGPAGHSKGELAP gave a protein stability index of 3.63.
Variant ITDSYPYVKRREGPAGHSKGELAP has a protein stability index of 4.14.
For ITDSYPEVKRREGPAGHSKGELAP, the protein stability index was 5.27.
ITDSYPFVKRREGPAGHSKGELAP gave a protein stability index of 3.45.
ITDSYPIVKRREGPAGHSKGELAP gave a protein stability index of 3.42.
Variant ITDSYPNVKRREGPAGHSKGELAP has a protein stability index of 4.2.
With ITDSYPGVKRREGPAGHSKGELAP the protein stability index was 4.93.
ITDSYPPVKRREGPAGHSKGELAP showed a protein stability index of 5.22.
Variant ITDSYPKVKRREGPAGHSKGELAP has a protein stability index of 3.56.
ITDSYPDVKRREGPAGHSKGELAP showed a protein stability index of 4.8.
Variant ITDSYPSVKRREGPAGHSKGELAP has a protein stability index of 4.76.
Variant ITDSYPAVKRREGPAGHSKGELAP has a protein stability index of 4.02.
For ITDSYPTVKRREGPAGHSKGELAP, the protein stability index was 4.18.
ITDSYPVVPRREGPAGHSKGELAP showed a protein stability index of 4.26.
ITDSYPVVVRREGPAGHSKGELAP showed a protein stability index of 4.06.
In the case of ITDSYPVVSRREGPAGHSKGELAP, the protein stability index is reported as 4.41.
ITDSYPVVCRREGPAGHSKGELAP showed a protein stability index of 3.95.
With ITDSYPVVYRREGPAGHSKGELAP the protein stability index was 4.15.
ITDSYPVVHRREGPAGHSKGELAP showed a protein stability index of 2.72.
ITDSYPVVTRREGPAGHSKGELAP showed a protein stability index of 4.71.
For ITDSYPVVRRREGPAGHSKGELAP, the protein stability index was 3.25.
For ITDSYPVVWRREGPAGHSKGELAP, the protein stability index was 4.14.
Variant ITDSYPVVFRREGPAGHSKGELAP has a protein stability index of 3.1.
With ITDSYPVVERREGPAGHSKGELAP the protein stability index was 4.83.
Work on ITDSYPVVARREGPAGHSKGELAP yielded a protein stability index of 4.65.
In the case of ITDSYPVVDRREGPAGHSKGELAP, the protein stability index is reported as 4.63.
Variant ITDSYPVVGRREGPAGHSKGELAP has a protein stability index of 5.01.
With ITDSYPVVIRREGPAGHSKGELAP the protein stability index was 3.8.
In the case of ITDSYPVVMRREGPAGHSKGELAP, the protein stability index is reported as 4.06.
For ITDSYPVVKRREGPAQHSKGELAP, the protein stability index was 3.5.
ITDSYPVVKRREGPAMHSKGELAP showed a protein stability index of 2.56.
In the case of ITDSYPVVKRREGPAYHSKGELAP, the protein stability index is reported as 2.39.
With ITDSYPVVKRREGPALHSKGELAP the protein stability index was 2.49.
With ITDSYPVVKRREGPAEHSKGELAP the protein stability index was 3.83.
For ITDSYPVVKRREGPAIHSKGELAP, the protein stability index was 2.72.
For ITDSYPVVKRREGPAHHSKGELAP, the protein stability index was 3.08.
With ITDSYPVVKRREGPACHSKGELAP the protein stability index was 3.52.
ITDSYPVVKRREGPARHSKGELAP gave a protein stability index of 3.64.
In the case of ITDSYPVVKRREGPAKHSKGELAP, the protein stability index is reported as 3.07.
Work on ITDSYPVVKRREGPAAHSKGELAP yielded a protein stability index of 4.75.
ITDSYPVVKRREGPADHSKGELAP showed a protein stability index of 3.77.
For ITDSYPVVKRREGPASHSKGELAP, the protein stability index was 2.51.
With ITDSYPVVKRREGPANHSKGELAP the protein stability index was 2.82.
In the case of ITDSYPVVKRREGPATHSKGELAP, the protein stability index is reported as 3.62.
Work on ITDSYPVVKRREGPAPHSKGELAP yielded a protein stability index of 3.28.
Work on ITDSYPVVKRREGPAFHSKGELAP yielded a protein stability index of 3.33.
ITDSYPVVKRREGPAVHSKGELAP gave a protein stability index of 2.57.
With ITDSYPVVKRREGPAWHSKGELAP the protein stability index was 2.66.
ITDSYPVVKRRERPAGHSKGELAP showed a protein stability index of 3.7.
With ITDSYPVVKRREDPAGHSKGELAP the protein stability index was 3.94.
ITDSYPVVKRRECPAGHSKGELAP showed a protein stability index of 3.87.
ITDSYPVVKRREVPAGHSKGELAP showed a protein stability index of 2.62.
Work on ITDSYPVVKRREYPAGHSKGELAP yielded a protein stability index of 3.11.
With ITDSYPVVKRREQPAGHSKGELAP the protein stability index was 3.32.
With ITDSYPVVKRREWPAGHSKGELAP the protein stability index was 2.5.
For ITDSYPVVKRRENPAGHSKGELAP, the protein stability index was 2.78.
With ITDSYPVVKRREIPAGHSKGELAP the protein stability index was 2.7.
Work on ITDSYPVVKRRELPAGHSKGELAP yielded a protein stability index of 2.75.
ITDSYPVVKRRESPAGHSKGELAP showed a protein stability index of 3.22.
For ITDSYPVVKRRETPAGHSKGELAP, the protein stability index was 3.19.
Work on ITDSYPVVKRREFPAGHSKGELAP yielded a protein stability index of 2.45.
With ITDSYPVVKRREEPAGHSKGELAP the protein stability index was 3.86.
ITDSYPVVKRREHPAGHSKGELAP gave a protein stability index of 3.24.
ITDSYPVVKRREPPAGHSKGELAP showed a protein stability index of 4.43.
With ITDSYPVVKRREAPAGHSKGELAP the protein stability index was 2.92.
In the case of ITDSYWVVKRREGPAGHSKGELAP, the protein stability index is reported as 3.4.
Work on ITDSYIVVKRREGPAGHSKGELAP yielded a protein stability index of 4.17.
For ITDSYHVVKRREGPAGHSKGELAP, the protein stability index was 5.
For ITDSYRVVKRREGPAGHSKGELAP, the protein stability index was 2.94.
With ITDSYTVVKRREGPAGHSKGELAP the protein stability index was 4.55.
Variant ITDSYLVVKRREGPAGHSKGELAP has a protein stability index of 3.75.
Work on ITDSYNVVKRREGPAGHSKGELAP yielded a protein stability index of 4.51.
Work on ITDSYSVVKRREGPAGHSKGELAP yielded a protein stability index of 3.53.
Variant ITDSYGVVKRREGPAGHSKGELAP has a protein stability index of 4.67.
With ITDSYPVVKRREGPAGASKGELAP the protein stability index was 2.97.
In the case of ITDSYPVVKRREGPEGHSKGELAP, the protein stability index is reported as 3.33.
For ITDSYPVVKRREGPPGHSKGELAP, the protein stability index was 3.03.
Work on ITDSYPVVKRREGPNGHSKGELAP yielded a protein stability index of 2.97.
Work on ITDSYPVVKRREGPHGHSKGELAP yielded a protein stability index of 2.75.
ITDSYPVVKRREGPMGHSKGELAP showed a protein stability index of 3.08.
ITDSYPVVKRREGPKGHSKGELAP gave a protein stability index of 3.45.
In the case of ITDSYPVVKRREGPTGHSKGELAP, the protein stability index is reported as 2.22.
In the case of ITDSYPVVKRREGPSGHSKGELAP, the protein stability index is reported as 2.8.
Variant ITDSYPVVKRREGPQGHSKGELAP has a protein stability index of 2.94.
Variant ITDSYPVVKRREGPVGHSKGELAP has a protein stability index of 3.23.
Variant ITDSYPVVKRREGPFGHSKGELAP has a protein stability index of 2.41.
For ITDSYPVVKRREGPLGHSKGELAP, the protein stability index was 3.32.
For ITDSYPVVKRREGPYGHSKGELAP, the protein stability index was 3.75.
In the case of ITDSYPVVKRREGPRGHSKGELAP, the protein stability index is reported as 3.27.
In the case of ITDSYPVVKRREGPIGHSKGELAP, the protein stability index is reported as 2.58.
